Measured values from US20220089784A1 (University of California, published 2022).

How the values were obtained:
Assay in all cases: yeast scFv FACS
[1] = target: BoNT/A2 holotoxin (FRI-H1A2) (Clostridium botulinum, UniProt Q45894 2-1296)
[2] = target: BoNT/A light chain (recombinant) (Clostridium botulinum, UniProt P0DPI0 1-448)
[3] = target: BoNT/A1 holotoxin (Hall hyper) (Clostridium botulinum, UniProt P0DPI0 2-1296)
[4] = target: T1, BoNT/B light chain (recombinant) (Clostridium botulinum, UniProt P10844 1-441)
T1 sequence: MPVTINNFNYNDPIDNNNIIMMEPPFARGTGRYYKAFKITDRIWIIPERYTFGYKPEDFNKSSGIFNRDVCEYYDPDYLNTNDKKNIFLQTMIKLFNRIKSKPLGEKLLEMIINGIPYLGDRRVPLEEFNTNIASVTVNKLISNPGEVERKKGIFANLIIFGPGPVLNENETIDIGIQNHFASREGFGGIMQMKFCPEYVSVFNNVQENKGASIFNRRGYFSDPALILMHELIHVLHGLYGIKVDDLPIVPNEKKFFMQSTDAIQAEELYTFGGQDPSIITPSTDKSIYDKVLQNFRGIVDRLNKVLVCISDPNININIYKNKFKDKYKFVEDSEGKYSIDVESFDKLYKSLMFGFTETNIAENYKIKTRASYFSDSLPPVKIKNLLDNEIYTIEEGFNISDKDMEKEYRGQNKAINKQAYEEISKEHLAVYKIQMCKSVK

Chain of BoNT/A2 holotoxin (FRI-H1A2) (Q45894 2-1296): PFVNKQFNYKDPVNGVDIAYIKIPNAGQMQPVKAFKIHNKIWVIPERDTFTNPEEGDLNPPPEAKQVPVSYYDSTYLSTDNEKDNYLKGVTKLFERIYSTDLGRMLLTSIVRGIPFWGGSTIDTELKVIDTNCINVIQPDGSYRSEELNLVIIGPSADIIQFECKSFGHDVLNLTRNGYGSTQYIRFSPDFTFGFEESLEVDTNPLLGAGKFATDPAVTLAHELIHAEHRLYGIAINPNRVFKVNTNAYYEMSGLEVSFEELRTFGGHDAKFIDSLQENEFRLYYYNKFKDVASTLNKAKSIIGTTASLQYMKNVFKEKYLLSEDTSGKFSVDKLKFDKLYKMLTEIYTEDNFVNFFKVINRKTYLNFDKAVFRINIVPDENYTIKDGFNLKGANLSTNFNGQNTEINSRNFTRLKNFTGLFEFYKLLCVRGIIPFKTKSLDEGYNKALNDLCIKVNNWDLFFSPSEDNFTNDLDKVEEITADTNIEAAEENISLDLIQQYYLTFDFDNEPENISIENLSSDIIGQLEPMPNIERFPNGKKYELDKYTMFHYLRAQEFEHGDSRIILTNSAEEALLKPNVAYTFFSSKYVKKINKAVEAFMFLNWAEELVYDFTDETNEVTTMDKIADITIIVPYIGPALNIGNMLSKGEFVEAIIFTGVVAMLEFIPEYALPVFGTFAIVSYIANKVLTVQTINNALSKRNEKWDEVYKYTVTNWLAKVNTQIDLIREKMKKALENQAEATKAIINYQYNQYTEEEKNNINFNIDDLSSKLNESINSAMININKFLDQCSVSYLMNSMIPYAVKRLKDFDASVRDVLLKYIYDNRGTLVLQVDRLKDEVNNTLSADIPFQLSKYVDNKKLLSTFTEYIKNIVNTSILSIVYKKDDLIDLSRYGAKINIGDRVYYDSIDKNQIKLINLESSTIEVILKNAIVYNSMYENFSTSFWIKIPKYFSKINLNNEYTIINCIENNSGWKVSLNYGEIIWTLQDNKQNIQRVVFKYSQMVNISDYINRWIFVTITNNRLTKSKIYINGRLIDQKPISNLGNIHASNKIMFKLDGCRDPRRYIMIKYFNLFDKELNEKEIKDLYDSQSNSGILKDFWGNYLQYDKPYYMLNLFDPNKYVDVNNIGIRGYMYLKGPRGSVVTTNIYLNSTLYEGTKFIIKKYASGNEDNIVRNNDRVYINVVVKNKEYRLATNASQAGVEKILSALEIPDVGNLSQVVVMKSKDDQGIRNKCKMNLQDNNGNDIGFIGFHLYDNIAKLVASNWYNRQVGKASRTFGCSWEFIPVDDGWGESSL

B1: 10H10 scFv (scFv)
scFv: QVQLQQSGAELVRPGTSVKLSCKASGYTFTSYWMHWVKQRPGQGLEWIGVIDPSDSYTNYNQKFKGKATLTVDTSSSTAYMQLSSLTSEDSAVYYCARGGGRSSLDYWGQGTSVTVSSVDLKSGGSTSGSGKPGSGEGSSGSARDVVMTQTPASLAVSLGQRATISCKASQSVDYDGDSYMNWYQQKPGQPPKLLIYAASSLESGIPARFSGSGSGTDFTLNIHPVEEEDAATYYCQQSNEDPYTFGGGTKLEIK
notes: mouse
In the case of B1, the binding result [1] is reported as “no binding”, the Kd [2] is reported as 11.1 nM and the binding result [3] is reported as “no binding”.

B2: 10H11 scFv (scFv)
scFv: QIQLLQSGAELVKPGASVKLSCTASGFNIKDYYMHWVKQRPEQGLEWIGRIDPEDGDTEYAPKFQGKATMTADTSSNTAYLQLSSLTSEDSAVYFCARLNYDYPYWYFDVWGTGTTLTVSSVDLKSGGSTSGSGKPGSGEGSSGSARQIVLTQSPAIMSASPGEKVTMTCSASSSVSYMYWYQQKPGSSPRLLIYDTSNLASGVPVRFSGSGSGTSYSLTISRMEAEDAATYYCQQWSSYPLTFGAGTRLELK
notes: mouse
With B2 the binding result [1] was “no binding”, the Kd [2] was 0.92 nM and the binding result [3] was “no binding”.

B3: 10B12 scFv (scFv)
scFv: EVQLQQSGAELVRPGTSVKLSCKSSGYTFTSDWMHWVIQRPGQGLEWIGVIDPSDSYTNYNQKFKGKATLTVDTSSSTAYMHLSSLTSEDSAVYYCARREGHYYGKAMDYWGQGTSVTVSSVDLKSGGSTSGSGKPGSGEGSSGSARDIVMSQSPASLAVSLGQRATISCRASESVDYDGDSYMNWYQQKPGQPPKLLIYAASNLESGIPARFSGSGSGTDFTLNIHPVEEEDAATYYCLQSNEAPWTFGGGTKLEIK
notes: mouse
B3 was tested, and the Kd [1] was 140 nM, the Kd [2] was 0.53 nM and the binding result [3] was “no binding”.

B4: 34E8B12 scFv (scFv)
scFv: QVQLVESGPDLVKPSQSLSLTCTVTGYSITSGYSWHWIRQFPGNKLEWMGYIHYSGSTNYNPSLKSRISITRDTSKNQFFLQLNSVTTEDTATYYCAVYYDYDGDYFDYWGQGTTLTVSSVDLKSGGSTSGSGKPGSGEGSSGSARDVVMTQSPAIMSASPGEKVTMTCSASSSVSYMYWFQQKPGSSPKPWIYRTSNLAPGVPARFSGSGSGTSYSLTISSMEAEDAATYYCQQWSSNPPWTFGGGTKLEIK
notes: mouse
With B4 the Kd [4] was 2.44 nM.

B5: 1C10 scFv (scFv)
scFv: QIQLLQPGTELVRPGTSVKLSCKASGYTFTNYWMHWVKQRPGQGLEWIGVIDPSDSYTNYNQKFKGKATLTVDTSSSTAYMQLSSLTFEDSAVYYCARYSGPYAMDYWGQGTTLTVSAVDLKSGGSTSGSGKPGSGEGSSGSAREIVLTQSPASLAVSLGQRATISCRACESVDYDGDSYMNWYQQKPGQPPKLLIYAASNLESGIPARFSGSGSGTDFTLNIHPVEEEDAATYYCLQSNEAPWTFGGGTKLEIK
notes: mouse
B5 was tested, and the binding result [1] was “no binding”, the Kd [2] was 4.85 nM and the binding result [3] was “no binding”.

B6: 10F9 scFv (scFv)
scFv: EVQLQQSGAELVKPGASVKLSCKASGYTFTSYWMHWIKQRPGQGLEWIGVIDPSDSYTNYNQKFKGKATLTVDTSSSTAYMQLSSLTSEDSAVYYCATGGNGFFDYWGQGTTLTVSSVDLKSGGSTSGSGKPGSGEGSSGSARDIVLTQSPASLAVSLGQRATISCRASESVDYDGDSYMNWYQQKPGQPPKLLIYAASNLESGIPARFSGSGSGTDFTLNIHPVEEEDAATYYCLQSNEAPWTFGGGTKLELK
notes: mouse
B6 gave a Kd [1] of over 500 nM, a Kd [2] of 0.09 nM and a Kd [3] of over 500 nM.

B7: 10C9 scFv (scFv)
scFv: QVQLQQSGAELVRPGTSVKLSCKASGYTFTSHWMHWVKQRPGQGLEWIGVIDPSDSYTNYNQKFKGKATLTVDTSSSTAYMQLSSLTSEDSAVYYCAIRRNYGMDYWGQGTSVTVSSVDLKSGGSTSGSGKPGSGEGSSGSARDIVMTQSPTSLAVSLGQRATISCKASQSVDYDGDSFMNWYQQKPGQPPKLLIYGASNLESGIPARFSGSGSRTDFTLTINPVEADDVATYYCQQSNEDPLTFGAGTKLELK
notes: mouse
With B7 the Kd [1] was 112 nM, the Kd [2] was 0.36 nM and the Kd [3] was over 500 nM.

B8: 1C7 scFv (scFv)
scFv: EVQLQQSGAELVRPGASVKMSCKASGYTFTSYNMHWVKQTPRQGLEWIGAIYPGNGDTSYNQKFKGKATLTVDKSSSTAYMQLSSLTSEDSAVYFCARTAGFYFDYWGQGTTLTVSSVDLKSGGSTSGSGKPGSGEGSSGSARDIVMTQSPAIMSASPGEKVTMTCSASSSVSYMYWYQQKPGSSPRLLIYYTSNLAPGVPARFSGSGSGNSYSLTISSMEGEDAATYYCQQFTSSPYTFGGGTKLEIK
notes: mouse
In the case of B8, the binding result [1] is reported as “no binding”, the Kd [2] is reported as 35.3 nM and the binding result [3] is reported as “no binding”.

B9: 31E2.20 scFv (scFv)
scFv: EVKLVESGAELVRPGASVKLSCTASGFNIKDDYVHWVKQRPEQGLEWIGRIDPEDGETKYAPKFQGKATITADTSSNTAYLQLSSLTSEDTAVYYCALWSNWYFDVWGAGTTVTVSAVDLKSGGSTSGSGKPGSGEGSSGSAREIVLTQSPEILSASPGEKVTMTCRASSSVSYMHWYQQKPGSSPKPWIYATSNLASGVPARFSGSGSGTSYSLTISSMEAEDAATYYCQQFHNYPPTFGAGTKLELK
notes: mouse
Work on B9 yielded a Kd [4] of 1.96 nM.

B10: 31H3 scFv (scFv)
scFv: EVQLQQSGAELVRPGASVKMSCKASGYPFTIYWITWVKQRPGQGLEWIGEIYPGSGFTKYNEKFRSKATLTVDTSSSTAYMQLSSLTSEDSAVYYCALYGSNFDYWGQGTTLTVSSVDLKSGGSTSGSGKPGSGEGSSGSARDIVMTQSPAIMSASPGEKVTMPCSASSSVSYMHWYQQKPGTSPKRWIYDTSKLASGVPARFSGSGSGTSYSLTISRVEAEDAATYYCQQWSSHPPTFGAGTRLEIK
notes: mouse
B10 gave a Kd [4] of 1.28 nM.

B11: 31G2 scFv (scFv)
scFv: QVQLQQSGAELVKPGASVKLSCTASGFNIKDTYMHWVKQRPEQGLEWIGRIDPEDGETKYAPKFQGKATITADTSSNTAYLQLSSLTSEDTAVYYCARWLLYYYAMDYWGQGTSVTVSAVDLKSGGSTSGSGKPGSGEGSSGSARQIVLTQSPALMAASPGEKVTITCSVSSSISSSNLHWYQQKSETSPKPWIYGTSNLASGVPARFSGSGSGTSYSLTISRVEAEDAATYYCHQRSSYPLTFGAGTKLEIK
notes: mouse
B11 was tested, and the Kd [4] was 3.34 nM.

B12: 18F2 scFv (scFv)
scFv: EVQLQQSGPELMKPGASVKISCKASGYAFSRSWMNWVKQRPGKGLEWIGRIYPGDGDTNYNGKFKDKASLTADTSSSTAYMQLSSLTSEDSAVYFCTKSEGYYHNLGAYWGQGTTVTVSSVDLKSGGSTSGSGKPGSGEGSSGSAREIVLTQSPAIMSASPGQKVTITCSASSSVSYMHWYQQKSGTSPKRWIYDTSKLASGVPARFSGSGSGTSYSLIISSMEAEDAATYYCQQWRSNPPTFGGGTRLEIK
notes: mouse
B12 gave a Kd [4] of 1.05 nM.

B13: 11D8 scFv (scFv)
scFv: EVQLQQSGAELVRPGTSVKLSCKASGYTFTSYWMHWVKQRPGQGLEWIGVIDPSDSYTNYNQKFKGKATLTVDTSSSTAYMQLSSLASEDSAVYYCARYPGNRAMDYWGQGTSVTVSSVDLKSGGSTSGSGKPGSGEGSSGSARDIVLTQSPASLAVSLGQRATISCRASESVDYDGDSYMNWYQQKPGQPPKLLIYAASNLESGIPARFSGSGSGTDFTLNIHPVEEEDAATYYCLQSNEAPWTFGGGTKLEIK
notes: mouse
With B13 the binding result [1] was “no binding”, the Kd [2] was 0.22 nM and the binding result [3] was “no binding”.
